According to the nanobody polyreactivity screen of Harvey et al. (2022):

Assay: yeast display, Sf9 membrane polyspecificity reagent, FACS + sequencing; frameworks hold sequencing errors
Outline: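 Nanobodies from a synthetic yeast display library (Saccharomyces cerevisiae BJ5465), induced 36–48 hours with galactose, were stained 1 hour at 4 °C with 10% biotinylated, detergent-solubilized Sf9 membrane reagent, enriched on streptavidin microbeads, then FACS-sorted. Anti-HA (expression) and streptavidin (reagent binding) fluorescence set low and high (top ~1%) gates. Polyreactivity labels come from the gate of origin. Genes were colony-PCR amplified, MiSeq 2 × 250 sequenced and filtered by CDR length.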

Sequence	polyreactivity (PSR sort gate)
QVQLVESGGGLVQAGGSLRLSCAASGRIFVINVMGWSRQAPGKERELVATITWSVGSTYYADSVKGRFTISRDTAKNTVYLQMNSLKPEDTAVYYCAAASSFKFDYWGQGTQVTVSS	low polyreactivity
QVQLVESGGGLVQAGGSLRLSCAASGRIFVKYAMGWYRQATGKERELVAAISKSGGSTYYADSVKGRFTISRDNAKNTVYLQMNSLKPEDTAVYYCATRSRDQYSVSYRLDYWGQGTQVTVSW	low polyreactivity
QVQLVESGGGLVQAGGSLRLSCAASGRIFVKYTMGWYRQAPGKERELVAAIDFDTDSTYYADSVKGRFTISRDNAMNTVYLQMNSLKPEDTAVYYCAADQYYYWYTHQSIGYDYWGQGTQVTVSS	low polyreactivity
QVQLVESGGGLVQAGGSLRLSCAASGRIFVLYAMGWYRQAPGKERELVAAISTSGGSTYYADSVKGRFTISRDNAKNTYYLQMNSLKPEDTAVYYCAADRSARFLFIQYYPYGMDYWGQGTQVTVSS	high polyreactivity
QVQLVESGGGLVQAGGSLRLSCAASGRIFVNYAMGWYRQAPGKEREFVAGIRVNGGSTYYADSVKGRFTISRDNAKNTVYLQMNSLKPEDTAVYYCAKAYPGTYREYDYWGQGTQVTVSS	high polyreactivity
QVQLVESGGGLVQAGGSLRLSCAASGRIFVNYAMGWYRQEPGKERELVAAITSDGSTSYADSVKGRFTISRDTAKNTVYLQMNSLKPDDPAVYYCAKDFFEHSPVSHTYSSSKYDYWGEGTQVTVSS	low polyreactivity
QVQLVESGGGLVQAGGSLRLSCAASGRIFVPYAMGWYRQAPGKERELVAGITSGSRTNYADSVKGRFTISRDNAKYTVYLQMNSLKPEDTEVYYCNALDFRYYGIFDYWGQGTQVTVSS	high polyreactivity
QVQLVESGGGLVQAGGSLRLSCAASGRIFVQYAMGWNRQAPGKERELVAAISGSGGRTYYADSVKWRFTISRDNAKNTVYLQMNSLKTEDTAVFYCAARSSTGVSFWKPYYYWGQGTQVTLSS	high polyreactivity
QVQLVESGGGLVQAGGSLRLSCAASGRIFVRYAMGWYRQAPGKERELVAAISKSGGSTYYADSVKGRFTISRDNAKNTVYLQMNSLKPEDTAVYYCNALVRRRPGYIRYDYWGQGTQVTVSS	low polyreactivity
QVQLVESGGGLVQAGGSLRLSCAASGRIFVSNAMGWYRQAPGKERELVAGITWTSGSTYYADSVKGRFTISRDNAKNTVYLQMNSLKPEDTAVYYCAAEYCYGNAFDYWGQGTQVTVSS	low polyreactivity
QVQLVESGGGLVQAGGSLRLSCAASGRIFVSNAMGWYRQAPGKERELVASISWSGGSTYYADSVKGRFTISRDNAKNTVYLQMNSLKPEDTAVYYCNRVRYPRQGFRLYYWGQGTQVTVSS	high polyreactivity
QVQLVESGGGLVQAGGSLRLSCAASGRIFVSNVMGWYRQAPGKERELVATITWSDGSTYYADSVKGRFTISRDNAKNTVYLQMNSLKPEDTAVYYCNVDQYTYVDLYWEYYFWGQGTQVTVSS	low polyreactivity
QVQLVESGGGLVQAGGSLRLSCAASGRIFVTNAMGGYRQAPGKEREFVAGISFSGDGRTYYADSVKGRFTISRDNAKNTVYLQMNSLKPEDSAVYYCAAPHRSRTHELDYWGQGTQVTVSS	low polyreactivity
QVQLVESGGGLVQAGGSLRLSCAASGRIFVTYVMGWYRQAPGKERELVAAISRRGGTTYYADSVKGRFTISRDNAKNTVYLQMNSLKPEDTAVYYCNVARDYAVESGYWGQGTQVTVSS	high polyreactivity
QVQLVESGGGLVQAGGSLRLSCAASGRIFVVNAMGWYRQAPGKESELVAAITRRGGSTYADSVKGRFTISRDNAKNTLYIQMTSLKPEDTAVYYCNAESDFGIFRYKYDYWGQCTQVTVSS	high polyreactivity
QVQLVESGGGLVQAGGSLRLSCAASGRIFVYNAMGWYRQAPGKERELVAAITRGCSTYYADSVKGRFTISRDNAKNTVYLQMNSLKPEDTAVYYCASDYQRNDFRWYDYWGQGTQVTVSS	low polyreactivity
QVQLVESGGGLVQAGGSLRLSCAASGRIFVYNAMGWYRQAPGKERELVATITSGGSTYYADSVKGRFTISRDNAKNTVYLQMNSLKPEDTAVYYCAARRWYVHYFAYGYWGQRTQVTVSS	low polyreactivity
